Assay results as given in patent CN116284393A (BEIJING DONGFANG BIOTECH CO LTD, dated 2023).

Legend:
LILRA4 [1] = target: T1, LILRA4 (UniProt P59901 24-446, limits assumed); experiment: ELISA, coated protein 100ng/well
LILRA1 [2] = target: T2, LILRA1 (UniProt O75019 17-461, limits assumed); experiment: ELISA, coated protein 100ng/well
LILRA6 [3] = target: T3, LILRA6 (UniProt Q6PI73 24-447, limits assumed); experiment: ELISA, coated protein 100ng/well
LILRA3 [4] = target: T4, LILRA3 (UniProt Q8N6C8 24-439); experiment: ELISA, coated protein 100ng/well
T4 sequence (Q8N6C8 24-439 limits assumed): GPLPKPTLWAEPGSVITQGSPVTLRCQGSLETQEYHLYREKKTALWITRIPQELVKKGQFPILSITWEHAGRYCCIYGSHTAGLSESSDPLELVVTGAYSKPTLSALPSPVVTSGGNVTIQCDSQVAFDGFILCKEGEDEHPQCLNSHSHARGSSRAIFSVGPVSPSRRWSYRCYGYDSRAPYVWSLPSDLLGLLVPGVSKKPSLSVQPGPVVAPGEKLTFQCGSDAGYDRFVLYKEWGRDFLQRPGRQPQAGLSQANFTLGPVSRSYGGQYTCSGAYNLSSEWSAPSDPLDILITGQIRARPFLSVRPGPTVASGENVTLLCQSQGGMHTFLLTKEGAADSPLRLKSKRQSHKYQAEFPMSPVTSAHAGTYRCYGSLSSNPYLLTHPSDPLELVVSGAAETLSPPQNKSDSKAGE

LILRA5 [5] = target: T5, LILRA5 (UniProt A6NI73 42-268, limits assumed); experiment: ELISA, coated protein 100ng/well
T5 sequence (A6NI73 42-268 limits assumed): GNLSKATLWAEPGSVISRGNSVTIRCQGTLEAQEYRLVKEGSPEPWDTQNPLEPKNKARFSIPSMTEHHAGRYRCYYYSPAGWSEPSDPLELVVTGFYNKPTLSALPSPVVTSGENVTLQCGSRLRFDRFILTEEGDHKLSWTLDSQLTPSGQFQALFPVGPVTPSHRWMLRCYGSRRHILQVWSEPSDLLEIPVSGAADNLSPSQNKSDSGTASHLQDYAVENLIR

LILRB5 [6] = target: T6, LILRB5 (UniProt O75023 24-458, limits assumed); experiment: ELISA, coated protein 100ng/well
T6 sequence (O75023 24-458 limits assumed): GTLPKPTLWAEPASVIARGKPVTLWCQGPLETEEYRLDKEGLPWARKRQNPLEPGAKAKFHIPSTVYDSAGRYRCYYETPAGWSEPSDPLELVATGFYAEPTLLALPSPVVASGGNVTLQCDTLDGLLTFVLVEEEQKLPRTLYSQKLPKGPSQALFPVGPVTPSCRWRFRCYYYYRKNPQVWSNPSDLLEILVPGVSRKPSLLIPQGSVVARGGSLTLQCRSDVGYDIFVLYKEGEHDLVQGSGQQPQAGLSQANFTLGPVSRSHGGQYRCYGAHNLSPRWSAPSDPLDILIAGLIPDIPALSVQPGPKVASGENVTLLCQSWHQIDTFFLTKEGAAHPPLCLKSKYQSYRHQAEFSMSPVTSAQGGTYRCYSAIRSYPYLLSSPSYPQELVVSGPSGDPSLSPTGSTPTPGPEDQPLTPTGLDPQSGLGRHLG

LILRA2 [7] = target: T7, LILRA2 (UniProt Q8N149 24-449, limits assumed); experiment: ELISA, coated protein 100ng/well
T7 sequence (Q8N149 24-449 limits assumed): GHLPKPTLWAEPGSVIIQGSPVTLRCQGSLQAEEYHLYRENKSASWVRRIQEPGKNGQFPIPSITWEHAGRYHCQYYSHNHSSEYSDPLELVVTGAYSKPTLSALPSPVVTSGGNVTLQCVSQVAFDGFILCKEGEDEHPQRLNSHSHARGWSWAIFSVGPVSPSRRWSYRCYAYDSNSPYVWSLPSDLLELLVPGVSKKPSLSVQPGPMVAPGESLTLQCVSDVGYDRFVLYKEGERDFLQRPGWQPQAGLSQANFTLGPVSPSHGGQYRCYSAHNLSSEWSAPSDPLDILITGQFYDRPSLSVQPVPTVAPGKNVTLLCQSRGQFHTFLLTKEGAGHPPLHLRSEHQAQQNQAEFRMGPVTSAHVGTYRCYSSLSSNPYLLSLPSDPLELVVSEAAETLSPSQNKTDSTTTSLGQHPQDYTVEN

LILRB2 [8] = target: T8, LILRB2 (UniProt Q8N423 22-460, limits assumed); experiment: ELISA, coated protein 100ng/well
T8 sequence (Q8N423 22-460 limits assumed): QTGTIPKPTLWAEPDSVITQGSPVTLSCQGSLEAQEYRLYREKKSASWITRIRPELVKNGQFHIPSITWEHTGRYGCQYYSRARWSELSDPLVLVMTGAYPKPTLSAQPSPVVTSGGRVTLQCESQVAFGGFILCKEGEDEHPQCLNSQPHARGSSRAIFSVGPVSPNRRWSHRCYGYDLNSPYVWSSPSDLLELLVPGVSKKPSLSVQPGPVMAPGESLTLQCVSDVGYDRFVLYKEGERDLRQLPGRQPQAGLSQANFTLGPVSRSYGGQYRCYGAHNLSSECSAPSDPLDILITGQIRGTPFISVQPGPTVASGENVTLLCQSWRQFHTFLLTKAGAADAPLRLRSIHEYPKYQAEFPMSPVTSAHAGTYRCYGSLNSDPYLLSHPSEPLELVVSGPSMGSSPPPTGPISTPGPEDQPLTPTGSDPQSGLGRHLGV

LILRB3 [9] = target: T9, LILRB3 (UniProt O75022 24-443, limits assumed); experiment: ELISA, coated protein 100ng/well
T9 sequence (O75022 24-443 limits assumed): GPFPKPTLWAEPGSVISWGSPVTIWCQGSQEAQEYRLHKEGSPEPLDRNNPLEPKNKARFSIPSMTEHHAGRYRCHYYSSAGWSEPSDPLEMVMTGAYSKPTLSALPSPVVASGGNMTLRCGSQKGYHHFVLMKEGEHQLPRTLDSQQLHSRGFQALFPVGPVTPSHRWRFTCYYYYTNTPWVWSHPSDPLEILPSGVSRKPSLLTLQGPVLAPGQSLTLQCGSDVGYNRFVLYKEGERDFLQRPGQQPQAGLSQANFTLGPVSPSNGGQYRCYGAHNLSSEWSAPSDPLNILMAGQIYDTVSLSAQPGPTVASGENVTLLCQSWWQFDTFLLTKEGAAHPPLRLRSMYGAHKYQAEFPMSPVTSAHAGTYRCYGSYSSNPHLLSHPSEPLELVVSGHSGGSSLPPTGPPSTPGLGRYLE

LILRB1 [10] = target: T10, LILRB1 (UniProt Q8NHL6 24-461, limits assumed); experiment: ELISA, coated protein 100ng/well
T10 sequence (Q8NHL6 24-461 limits assumed): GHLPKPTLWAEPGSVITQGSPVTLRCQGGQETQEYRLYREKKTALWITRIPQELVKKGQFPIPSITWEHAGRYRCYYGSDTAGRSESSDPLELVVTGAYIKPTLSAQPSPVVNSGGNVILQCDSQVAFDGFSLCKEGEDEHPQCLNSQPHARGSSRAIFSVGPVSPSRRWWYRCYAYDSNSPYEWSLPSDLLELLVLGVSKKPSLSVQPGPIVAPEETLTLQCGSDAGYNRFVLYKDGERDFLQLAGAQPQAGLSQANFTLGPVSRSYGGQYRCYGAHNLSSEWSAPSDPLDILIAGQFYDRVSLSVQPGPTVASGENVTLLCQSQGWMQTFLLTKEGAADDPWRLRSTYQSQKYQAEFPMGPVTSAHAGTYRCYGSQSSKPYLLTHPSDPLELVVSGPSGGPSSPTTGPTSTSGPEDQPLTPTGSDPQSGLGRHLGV

LILRB4抗原 (人LILRB4蛋白胞外段) [11] = target: T11, LILRB4抗原 (人LILRB4蛋白胞外段) (human, UniProt Q8NHJ6 22-259); experiment: ELISA, coated LILRB4, Goat Anti-Mouse IgG-HRP
T11 construct: extracellular domain; Made in house from a synthesised gene

[12] = target: T12, 人单核细胞白血病细胞(THP-1)表面LILRB4 (human, UniProt Q8NHJ6 22-448); experiment: flow cytometry competition on THP-1 cells, competitor FITC-labelled ApoE 0.4μg/mL
T12 construct: whole, on cells; also called THP-1细胞表面的LILRB4

[13] = target: T12, 人单核细胞白血病细胞(THP-1)表面LILRB4; experiment: cell-based or functional assay
LILRA4 [14] = target: T1, LILRA4; experiment: ELISA, coated protein, antibody at 50μg/mL
LILRA1 [15] = target: T2, LILRA1; experiment: ELISA, coated protein, antibody at 50μg/mL
LILRA6 [16] = target: T3, LILRA6; experiment: ELISA, coated protein, antibody at 50μg/mL
LILRA3 [17] = target: T4, LILRA3; experiment: ELISA, coated protein, antibody at 50μg/mL
LILRA5 [18] = target: T5, LILRA5; experiment: ELISA, coated protein, antibody at 50μg/mL
LILRB5 [19] = target: T6, LILRB5; experiment: ELISA, coated protein, antibody at 50μg/mL
LILRA2 [20] = target: T7, LILRA2; experiment: ELISA, coated protein, antibody at 50μg/mL
LILRB2 [21] = target: T8, LILRB2; experiment: ELISA, coated protein, antibody at 50μg/mL
LILRB3 [22] = target: T9, LILRB3; experiment: ELISA, coated protein, antibody at 50μg/mL
LILRB4抗原 (人LILRB4蛋白胞外段) [23] = target: T11, LILRB4抗原 (人LILRB4蛋白胞外段); experiment: ELISA, coated protein, antibody at 50μg/mL
LILRB1 [24] = target: T10, LILRB1; experiment: ELISA, coated protein, antibody at 50μg/mL
[25] = target: T12, 人单核细胞白血病细胞(THP-1)表面LILRB4; experiment: flow cytometry on THP-1 cells, FITC goat anti-mouse IgG

T2 sequence (O75019 17-461 limits assumed): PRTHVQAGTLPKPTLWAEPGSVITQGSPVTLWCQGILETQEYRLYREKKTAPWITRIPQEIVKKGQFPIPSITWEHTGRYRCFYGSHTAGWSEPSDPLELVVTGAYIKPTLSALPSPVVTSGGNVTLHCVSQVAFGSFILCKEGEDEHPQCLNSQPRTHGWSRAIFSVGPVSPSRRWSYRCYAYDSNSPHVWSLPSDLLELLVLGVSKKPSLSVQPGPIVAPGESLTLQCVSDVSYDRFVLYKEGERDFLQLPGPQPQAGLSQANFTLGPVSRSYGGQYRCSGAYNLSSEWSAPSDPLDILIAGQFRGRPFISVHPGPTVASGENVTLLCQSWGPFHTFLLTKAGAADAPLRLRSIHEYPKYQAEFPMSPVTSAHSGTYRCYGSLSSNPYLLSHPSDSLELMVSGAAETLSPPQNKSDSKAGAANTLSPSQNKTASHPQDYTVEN
T1 sequence (P59901 24-446 limits assumed): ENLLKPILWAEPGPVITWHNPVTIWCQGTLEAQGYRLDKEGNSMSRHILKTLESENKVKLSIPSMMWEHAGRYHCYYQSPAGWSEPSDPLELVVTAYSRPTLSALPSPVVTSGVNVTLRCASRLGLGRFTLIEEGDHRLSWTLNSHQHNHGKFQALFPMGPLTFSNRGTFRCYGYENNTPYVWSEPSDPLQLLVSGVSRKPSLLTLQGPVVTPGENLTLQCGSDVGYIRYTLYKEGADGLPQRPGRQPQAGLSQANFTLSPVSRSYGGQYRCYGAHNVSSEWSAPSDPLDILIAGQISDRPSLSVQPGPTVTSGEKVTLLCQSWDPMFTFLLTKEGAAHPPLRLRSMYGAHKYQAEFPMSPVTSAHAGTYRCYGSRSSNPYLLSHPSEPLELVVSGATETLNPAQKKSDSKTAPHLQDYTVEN
T3 sequence (Q6PI73 24-447 limits assumed): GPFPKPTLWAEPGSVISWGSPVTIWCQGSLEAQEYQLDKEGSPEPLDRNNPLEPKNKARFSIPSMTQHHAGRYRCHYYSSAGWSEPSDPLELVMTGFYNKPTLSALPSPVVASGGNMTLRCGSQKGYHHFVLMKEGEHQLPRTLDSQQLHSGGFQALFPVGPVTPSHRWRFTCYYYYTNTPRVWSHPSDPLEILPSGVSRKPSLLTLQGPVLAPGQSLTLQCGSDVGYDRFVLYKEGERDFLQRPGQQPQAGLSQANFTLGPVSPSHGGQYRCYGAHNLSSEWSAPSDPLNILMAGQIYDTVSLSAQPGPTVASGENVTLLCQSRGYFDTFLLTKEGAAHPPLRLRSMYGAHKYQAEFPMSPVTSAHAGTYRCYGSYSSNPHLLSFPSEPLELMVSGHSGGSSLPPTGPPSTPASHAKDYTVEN

B1: MG-Ⅰ 单克隆抗体 (mouse IgG1 / Ck full antibody) (antibody, V domains shown)
VH: EVKLEESGGGLVKPGGSLKLSCAASGFTFSSNTMSWVRQTPEKRLEWVATISSGGSYIYYRDSVKGRFTISRDNAKNTLYLQMSSLKSEDTAMYYCTSEGRSRDPYYYSMDYWGQGTSVTVSS
VL: DIVLTQTPLSLPVSLGDQASISCRSSQSLVHSNGNTYLHWYLQKPGQSPKLLIYKVSNRFSGVPDRFSGSGSGTDFTLKISRVEAEDLGVYFCSQSTHVPTFGAGTKLELKA
notes: also called 单克隆抗体MG-Ⅰ
Question: Which results are given for B1?
Answer: binding result (LILRA4 [1]): no binding (tested: 50μg/mL); binding result (LILRA1 [2]): no binding (tested: 50μg/mL); binding result (LILRA6 [3]): no binding (tested: 50μg/mL); binding result (LILRA3 [4]): no binding (tested: 50μg/mL); binding result (LILRA5 [5]): no binding (tested: 50μg/mL); binding result (LILRB5 [6]): no binding (tested: 50μg/mL); binding result (LILRA2 [7]): no binding (tested: 50μg/mL); binding result (LILRB2 [8]): no binding (tested: 50μg/mL); binding result (LILRB3 [9]): no binding (tested: 50μg/mL); binding result (LILRB1 [10]): no binding (tested: 50μg/mL); EC50 (LILRB4抗原 (人LILRB4蛋白胞外段) [11]): 0.188 mg/L; IC50 [12]: 7.18 mg/L; IC50(μg/mL), 抑制THP-1分泌ARG1 (arginase activity in supernatant, with 0.5μg/mL ApoE) [13]: 257 µg/mL; OD 450nm/630nm (LILRA4 [14]): 0.077; OD 450nm/630nm (LILRA1 [15]): 0.103; OD 450nm/630nm (LILRA6 [16]): 0.053; OD 450nm/630nm (LILRA3 [17]): 0.057; OD 450nm/630nm (LILRA5 [18]): 0.066; OD 450nm/630nm (LILRB5 [19]): 0.176; OD 450nm/630nm (LILRA2 [20]): 0.046; OD 450nm/630nm (LILRB2 [21]): 0.04; OD 450nm/630nm (LILRB3 [22]): 0.05; OD 450nm/630nm (LILRB4抗原 (人LILRB4蛋白胞外段) [23]): 2.72; OD 450nm/630nm (LILRB1 [24]): 0.045; EC50 [25]: 4.31 mg/L
